# Assay results taken from the supplement of paper PMC11246515.
# ± gives the standard deviation of the averaged measurements.
# Test: total protein half-life in vivo (active degradation + dilution); higher = more stable protein
# [1] = E. coli NCM3722 delta-clpP delta-lon delta-hslV, growth: N-lim chemostat, doubling time 6 h
# [2] = E. coli NCM3722 delta-clpP, growth: N-lim chemostat, doubling time 6 h
# [3] = E. coli NCM3722 delta-hslV, growth: N-lim chemostat, doubling time 6 h
# [4] = E. coli NCM3722 delta-lon, growth: N-lim chemostat, doubling time 6 h
# [5] = E. coli NCM3722 delta-smpB, growth: N-lim chemostat, doubling time 6 h
# [6] = wild type E. coli NCM3722, growth: C-lim chemostat, doubling time 3 h
# [7] = wild type E. coli NCM3722, growth: C-lim chemostat, doubling time 6 h
# [8] = wild type E. coli NCM3722, growth: C-lim chemostat, doubling time 12 h
# [9] = wild type E. coli NCM3722, growth: N-lim chemostat, doubling time 6 h
# [10] = wild type E. coli NCM3722, growth: N-lim chemostat, doubling time 12 h
# [11] = wild type E. coli NCM3722, growth: P-lim chemostat, doubling time 6 h
# [12] = wild type E. coli NCM3722, growth: P-lim chemostat, doubling time 12 h
Sequence,total protein half-life in vivo [1] [h],total protein half-life in vivo [2] [h],total protein half-life in vivo [3] [h],total protein half-life in vivo [4] [h],total protein half-life in vivo [5] [h],total protein half-life in vivo [6] [h],total protein half-life in vivo [7] [h],total protein half-life in vivo [8] [h],total protein half-life in vivo [9] [h],total protein half-life in vivo [10] [h],total protein half-life in vivo [11] [h],total protein half-life in vivo [12] [h]
MTWFIDRRLNGKNKSMVNRQRFLRRYKAQIKQSISEAINKRSVTDVDSGESVSIPTEDISEPMFHQGRGGLRHRVHPGNDHFVQNDRIERPQGGGGGSGSGQGQASQDGEGQDEFVFQISKDEYLDLLFEDLALPNLKQNQQRQLTEYKTHRAGYTANGVPANISVVRSLQNSLARRTAMTAGKRRELHALEENLAIISNSEPAQLLEEERLRKEIAELRAKIERVPFIDTFDLRYKNYEKRPDPSSQAVMFCLMDVSGSMDQSTKDMAKRFYILLYLFLSRTYKNVEVVYIRHHTQAKEVDEHEFFYSQETGGTIVSSALKLMDEVVKERYNPAQWNIYAAQASDGDNWADDSPLCHEILAKKLLPVVRYYSYIEITRRAHQTLWREYEHLQSTFDNFAMQHIRDQDDIYPVFRELFHKQNATAKG,2.93 ± 0.22,2.2 ± 0.052,1.52 ± 0.018,1.525 ± 0.004,1.49 ± 0.047,1.37 ± 0.082,1.6 ± 0.063,1.95 ± 0.46,1.47 ± 0.039,1.64 ± 0.027,1.98 ± 0.3,3.11 ± 0.88
MTWLPLNPIPLKDRVSMIFLQYGQIDVIDGAFVLIDKTGIRTHIPVGSVACIMLEPGTRVSHAAVRLAAQVGTLLVWVGEAGVRVYASGQPGGARSDKLLYQAKLALDEDLRLKVVRKMFELRFGEPAPARRSVEQLRGIEGSRVRATYALLAKQYGVTWNGRRYDPKDWEKGDTINQCISAATSCLYGVTEAAILAAGYAPAIGFVHTGKPLSFVYDIADIIKFDTVVPKAFEIARRNPGEPDREVRLACRDIFRSSKTLAKLIPLIEDVLAAGEIQPPAPPEDAQPVAIPLPVSLGDAGHRSS,4.85 ± 0.84,,,,1.32 ± 0.25,3.48,3.62 ± 1.9,5.4,1.32,,2.23,
MTYAVEFDNVSRLYGDVRAVDGVSIAIKDGEFFSMLGPSGSGKTTCLRLIAGFEQLSGGAISIFGKPASNLPPWERDVNTVFQDYALFPHMSILDNVAYGLMVKGVNKKQRHAMAQEALEKVALGFVHQRKPSQLSGGQRQRVAIARALVNEPRVLLLDEPLGALDLKLREQMQLELKKLQQSLGITFIFVTHDQGEALSMSDRVAVFNNGRIEQVDSPRDLYMRPRTPFVAGFVGTSNVFDGLMAEKLCGMTGSFALRPEHIRLNTPGELQANGTIQAVQYQGAATRFELKLNGGEKLLVSQANMTGEELPATLTPGQQVMVSWSRDVMVPLVEER,6.01 ± 0.38,6.427 ± 0.038,5.58 ± 0.28,4.65 ± 1.3,5.64 ± 0.085,,,10.2 ± 0.023,4.78 ± 0.27,10.4 ± 0.55,4.68,10.8 ± 1.8
MTYQQAGRIAVLKRILGWVIFIPALISTLISLLKFMNTRQENKEGINAVMLDFTHVMIDMMQANTPFLNLFWYNSPTPNFNGGVNVMFWVIFILIFVGLALQDSGARMSRQARFLREGVEDQLILEKAKGEEGLTREQIESRIVVPHHTIFLQFFSLYILPVICIAAGYVFFSLLGFI,5.41 ± 0.081,5.2 ± 0.35,5.42 ± 0.091,5.94,6.11 ± 1.1,2.86 ± 0.074,,13.5 ± 0.8,5.62 ± 0.27,9.96 ± 2.3,5.46 ± 0.11,12 ± 0.18
MVAVRSAHINKAGEFDPEKWIASLGITSQKSCECLAETWAYCLQQTQGHPDASLLLWRGVEMVEILSTLSMDIDTLRAALLFPLADANVVSEDVLRESVGKSVVNLIHGVRDMAAIRQLKATHTDSVSSEQVDNVRRMLLAMVDDFRCVVIKLAERIAHLREVKDAPEDERVLAAKECTNIYAPLANRLGIGQLKWELEDYCFRYLHPTEYKRIAKLLHERRLDREHYIEEFVGHLRAEMKAEGVKAEVYGRPKHIYSIWRKMQKKNLAFDELFDVRAVRIVAERLQDCYAALGIVHTHYRHLPDEFDDYVANPKPNGYQSIHTVVLGPGGKTVEIQIRTKQMHEDAELGVAAHWKYKEGAAAGGARSGHEDRIAWLRKLIAWQEEMADSGEMLDEVRSQVFDDRVYVFTPKGDVVDLPAGSTPLDFAYHIHSDVGHRCIGAKIGGRIVPFTYQLQMGDQIEIITQKQPNPSRDWLNPNLGYVTTSRGRSKIHAWFRKQDRDKNILAGRQILDDELEHLGISLKEAEKHLLPRYNFNDVDELLAAIGGGDIRLNQMVNFLQSQFNKPSAEEQDAAALKQLQQKSYTPQNRSKDNGRVVVEGVGNLMHHIARCCQPIPGDEIVGFITQGRGISVHRADCEQLAELRSHAPERIVDAVWGESYSAGYSLVVRVVANDRSGLLRDITTILANEKVNVLGVASRSDTKQQLATIDMTIEIYNLQVLGRVLGKLNQVPDVIDARRLHGS [P0AG20],5.7 ± 0.41,5.46 ± 0.31,4.65 ± 0.24,4.99 ± 0.054,4.36 ± 0.23,2.68 ± 0.21,4.87 ± 0.11,8.04 ± 0.43,4.74 ± 0.17,7.78 ± 0.22,4.8 ± 0.23,9.13 ± 0.26
